Data from patent publication US20170369542A1 (Pieris, published 2017).

T1: synthetic non-modified human Hepcidin-25 (human, not fully specified)
T1 construct: also called hHepcidin-25; non-biotinylated human hepcidin
T1 peptide: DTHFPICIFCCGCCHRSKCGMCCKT

T2: cynomolgus Hepcidin-25 (cynomolgus, UniProt A7XEI3 60-84, not fully specified)
T2 construct: mature
T2 peptide: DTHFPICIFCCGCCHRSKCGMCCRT

T3: C-terminal biotinylated human Hepcidin-25 (human, not fully specified; biotinylated via a Lysine residue coupled to the C-terminus via a Mini-PEG linker)
T3 construct: Bought from Bachem AG; Captured on plates via Neutravidin; also called C-terminal biotinylated hepcidin; C-terminal biotinylated hHepcidin
T3 peptide: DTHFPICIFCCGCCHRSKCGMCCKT

B1: lipocalin mutein of SEQ ID NO: 9 (designed binder)
chain: QDSTSDLIPAPPLSKVPLQQNFQDNQFHGKWYVVGLAGNEVLREDKDPMKMWATIYELKEDKSYNVTIVMSLAKKCEYLFQTFVPGSQPGEFTLGDIKSSPGRTSGLVRVVSTNYNQHAMVFFKVVWQNREVFWITLYGRTKELTSGLKENFIRFSKSLGLPENHIVFPVPIDQCIDG
notes: also called Lcn2 mutein
B2: lipocalin mutein of SEQ ID NO: 11 (designed binder)
chain: QDSTSDLIPAPPLSKVPLQQNFQDNQFHGKWYVVGLAGNEILREDKDPMKMWATIYELKEDKSYNVTIVMFLAKKCEYLFQTFVPGSQPGEFTLGDIKSSPGRTSGLVRVVSTNYNQHAMVFFKVVWQNREVFWITLYGRTKELTSGLKENFIRFSKSLGLPENHIVFPVPIDQCIDG
notes: also called Lcn2 mutein
B3: lipocalin mutein of SEQ ID NO: 12 (designed binder)
chain: QDSTSDLIPAPPLSKVPLQQNFQDNQFHGKWYVVGLAGNEVLREDKDPMKMWATIYELKEDKSYNVTIVMFLAEECEYLFQTFVPGSQPGEFTLGDIKSSPGRTSGLVRVVSTNYNQHAMVFFKVVWQNREVFWITLYGRTKELTSELKKNFIRFSKSLGLPENHIVFPVPIDQCIDG
notes: also called Lcn2 mutein
B4: lipocalin mutein of SEQ ID NO: 14, linked to PEG40 (designed binder)
chain: QDSTSDLIPAPPLSKVPLQQNFQDNQFHGKWYVVGLAGNEVLREDKDPMKMWATIYELEEDKSYNVTIVMFLAKKCEYLFQTFVPGCQPGEFTLGDIKSSPGRTSGLVRVVSTNYNQHAMVFFKTVWQNREVFWITLYGRTKELTSELKENFIRFSKSLGLPENHIVFPVPIDQCIDG
modifications: branched 40k PEG-maleimide on the free Cys at position 87
notes: hNGAL mutein with Ser 87 back-mutated to Cys and PEGylated there
B5: lipocalin mutein of SEQ ID NO: 1, linked to albumine-binding domain (ABD) (SEQ ID NO: 15) (designed binder)
chain: QDSTSDLIPAPPLSKVPLQQNFQDNQFHGKWYVVGLAGNEVLREDKDPMKMWATIYELEEDKSYNVTIVMFLAKKCEYLFQTFVPGSQPGEFTLGDIKSSPGRTSGLVRVVSTNYNQHAMVFFKVVWQNREVFWITLYGRTKELTSELKENFIRFSKSLGLPENHIVFPVPIDQCIDGSAGAVDANSLAEAKVLANRELDKYGVSDYYKNLINNAKTVEGVKALIDEILAALPSAWSHPQFEK
notes: also called ABD-fusion protein
B6: lipocalin mutein of SEQ ID NO: 2 (designed binder)
chain: QDSTSDLIPAPPLSKVPLQQNFQDNQFHGKWYVVGTAGNSILREDKDPQKMWATIYELKEDKSYNVTRVFFEGKKCRYVIETFVPGSQPGEFTLGKIKSAPGGTSILVRVVSTNYNQHAMVFFKVVWQNRELFWITLYGRTKELTSELKENFIRFSKSLGLPENHIVFPVPIDQCIDG
notes: also called Lcn2 mutein
B7: lipocalin mutein of SEQ ID NO: 4 (designed binder)
chain: QDSTSDLIPAPPLSKVPLQQNFQDNQFHGKWYVVGVAGNEMLREDKDPLKMLATIYELKEDKSYNVTRVMFEYKKCVYLIETFVPGSQPGEFTLGTIKSVPGLTSGLVRVVSTNYNQHAMVFFKRVWQNREVFWITLYGRTKELTSELKENFIRFSKSLGLPENHIVFPVPIDQCIDG
notes: also called Lcn2 mutein
B8: lipocalin mutein of SEQ ID NO: 6 (designed binder)
chain: QDSTSDLIPAPPLSKVPLQQNFQDNQFHGKWYVVGLAGNEILREDKDPLKMWATIYELKEDKSYNVTRVQFGEKKCGYGIETFVPGSQPGEFTLGSIKSVPGGTSRLVRVVSTNYNQHAMVFFKFVWQNREVFWITLYGRTKELTSELKENFIRFSKSLGLPENHIVFPVPIDQCIDG
notes: also called Lcn2 mutein
B9: lipocalin mutein of SEQ ID NO: 7 (designed binder)
chain: QDSTSDLIPAPPLSKVPLQQNFQDNQFHGKWYVVGLAGNRVLREDKDPQKMFATIYELKEDKSYNVTGVDFRTKKCLYSIGTFVPGSQPGEFTLGVIKSQPGWTSYLVRVVSTNYNQHAMVFFKTVWQNREVFWITLYGRTKELTSELKENFIRFSKSLGLPENHIVFPVPIDQCIDG
notes: also called Lcn2 mutein
B10: lipocalin mutein of SEQ ID NO: 10 (designed binder)
chain: QDSTSDLIPAPPLSKVPLQQNFQDNQFHGKWYVVGLAGNEILREDKDPMKMWATIYELKEDRSYNVTIVMFLAKKCEYLFQTFVPGSQPGEFTLGDIKSSPGRTSGLVRVVSTNYNQHAMVFFKVVWQNREVFWITLYGRTKELTPELKENFIRFSKSLGLPENHIVFPVPIDQCIDGF
notes: also called Lcn2 mutein
B11: lipocalin mutein of SEQ ID NO: 3 (designed binder)
chain: QDSTSDLIPAPPLSKVPLQQNFQDNQFHGKWYVVGVAGNGLLREDKDPLKMHATIYELKEDKSYNVTRVLFVRKKCRYYISTFVPGSQPGEFTLGRIKSEPGRTSFLVRVVSTNYNQHAMVFFKMVWQNREVFWITLYGRTKELTSELKENFIRFSKSLGLPENHIVFPVPIDQCIDG
notes: also called Lcn2 mutein
B12: lipocalin mutein of SEQ ID NO: 5 (designed binder)
chain: QDSTSDLIPAPPLSKVPLQQNFQDNQFHGKWYVVGAAGNSLLREDKDPMKMWATIYELKEDKSYNVTRVNFGGKKCSYLIETFVPGSQPGEFTLGSIKSRPGATSVLVRVVSTNYNQHAMVFFKLVTQNREVFWITLYGRTKELTSELKENFIRFSKSLGLPENHIVFPVPIDQCIDG
notes: also called Lcn2 mutein

What was measured:
[1] = target: T1, synthetic non-modified human Hepcidin-25; test: competition ELISA: non-biotinylated human hepcidin-25 titrated against a constant concentration of mutein; free mutein detected on plate-captured biotinylated human hepcidin
Description: The binding affinity of the Lcn2 muteins to non-modified hepcidin-25 in solution was evaluated in a competition ELISA approach. Therefore, a constant concentration of 1 μg/ml C-terminal biotinylated human hepcidin (Bachem AG, CH) was captured on the surface of a polystyrol plate (Greiner, GE) via Neutravidin (Thermo Scientific, 5 μg/ml, GE). In parallel a two step dilution series of non-biotinylated human hepcidin starting from 1 μM was incubated with a constant concentration of hepcidin-specific mutein for 1 h at room temperature in a non-protein binding 96 well polypropylene plate (Nunc, GE). The constant concentration of lipocalin muteins corresponds to the EC₅₀ of the respective muteins as determined in a direct ELISA as described above in this example. In the following the mixture of non-modified human hepcidin and lipocalin mutein was transferred onto the hepcidin-captured Neutravidin plate. The C-terminal biotinylated hepcidin was allowed to compete with the non-modified hepcidin for Anticalin binding for 20 min. at room temperature. During these 20 min, free lipcocalin mutein was bound to the captured hepcidin and detected via a rabbit anti-strep-tag II polyconal antibody (GenScript, USA). A goat anti-rabbit IgG-HRP conjugate (Abcam, UK) was employed as secondary detection antibody. Parallel to the competition assay, anticalin binding was determined on the same plate in a “direct” ELISA, in order to obtain a standard curve linking the RFU values to anticalin concentration. This curve was then used to standardize competition data to the level of anticalins bounds to the plate and fitted with Graphpad software. IC₅₀ values correspond to the half-maximum amount of lipocalin mutein bound to the plate.

cynomolgus Hepcidin-25 = target: T2, cynomolgus Hepcidin-25; test: direct ELISA on cynomolgus hep-25, mutein titrated
Description: (§1) A “direct” ELISA was performed to verify the binding affinity and specificity of the selected Lcn2 muteins. Therefore, a constant concentration of 1 μg/ml C-terminal biotinylated hepcidin (Bachem AG, CH) was captured on the surface of a polystyrol plate (Greiner, GE) via Neutravidin (Thermo Scientific, 5 μg/ml). Two step dilution series of purified Lcn2 muteins were incubated with the captured hepcidin for 1 h at room temperature and detected either via the Strep-tag II using a rabbit anti-strep-tag II polyconal antibody (GenScript, USA) or by using a scaffold-specific polyclonal rabbit antibody. In both cases an anti rabbit IgG-HRP conjugate (Abcam, UK) was employed as secondary detection antibody.
(§2) The absorption ΔA at […] was measured in an ELISA reader (Tecan, GE) and the data were fitted with Graphpad Prism software (Statcom, USA).

[2] = target: T3, C-terminal biotinylated human …; test: direct ELISA, biotinylated hepcidin captured via Neutravidin, mutein titrated
Description: as §1, §2

[3] = target: T1, synthetic non-modified human Hepcidin-25; test: cell-based or functional assay

Binder	IC50 [1] [nM]	Kd (cynomolgus Hepcidin-25) [nM]	Kd [2] [nM]	IC50 of neutralization of hepcidin-induced (40 nM) internalization and degradation of FPN-GFP in T-REx-293 cells, GFP fluorescence by flow cytometry [3] [nM]
B1	0.12	1.14	0.75	
B2	0.11	0.61	0.64	31
B3	0.17	0.96	0.64	
B4	1.17	1.36	2.18	25
B5	0.37	0.22	0.48	39
B6	9	3.15	2.12	62
B7	0.6	2.03	1.39	62
B8	1.7	0.79	0.76	65
B9	1.3	0.22	0.48	79
B10	0.18	0.82	0.75	25
B11	0.38	0.59	0.84	
B12	10.8	6.83	4.13	
